Test results taken from paper PMC7994332, “A Bifan Motif Shaped by ArsR1, ArsR2, and Their Cognate Promoters Frames Arsenic Tolerance of Pseudomonas putida” (Frontiers in Microbiology, 2021).

Columns and labels:
[1] = tested on: 6His-ArsR1 (Pseudomonas putida KT2440); experiment: EMSA; conditions: no arsenite; 'gross KD'; EMSA: TRRG buffer (20 mM Tris-HCl pH 7.5, 50 mM KCl, 2 mM beta-mercaptoethanol, 10% glycerol), BSA, 25 ug/ml herring sperm DNA, 0.3 nM probe, 20 min 30 C …
[2] = tested on: 6His-ArsR2 (Pseudomonas putida KT2440); experiment: EMSA; conditions: no arsenite; 'gross KD'; EMSA: TRRG buffer (20 mM Tris-HCl pH 7.5, 50 mM KCl, 2 mM beta-mercaptoethanol, 10% glycerol), BSA, 25 ug/ml herring sperm DNA, 0.3 nM probe, 20 min 30 C …
[3] = target: the molecule itself; experiment: AUC; sedimentation velocity, 20°C, 48,000 rpm, 20 mM NaH2PO4, 100 mM KCl, 2 mM β-mercaptoethanol, pH 8.0, with or without 2 mM arsenite; data shown for 20 μM protein (methods: 42 μM 6His-ArsR1, 36 μM 6His-ArsR2); s = 2.1 ± 0.1 S

Molecule: Pars1 probe
- Kd [1]: 200 nM

Molecule: Pars2 probe
- Kd [2]: 500 nM

B1: 6His-ArsR2 (natural protein, Pseudomonas putida KT2440, UniProt Q88JD1 1-115, looked up)
chain: MITPPDVFKSLSDETRARATLLIASLGELCVCELMCALNDSQPKISRHLAQLRSNGMLLDRRQGQWVYYRLNPELPSWVHEMLQVTLQANSQWLADNALRLKNMDGRPVRDSVCC
notes: ArsR2, As(III)-responsive transcriptional repressor of the ars2 operon (SmtB/ArsR family), Pseudomonas putida KT2440; protein of 115 amino acids; 364-bp PCR fragment that includes the arsR2 gene cloned BamHI/HindIII into pQE32; Theoretical monomer mass with tag 14,519 Da; source: E. coli M15 (pREP4, pQE32-ArsR2), purified (Ni-NTA agarose, dialysed)
- stoichiometry N [3]: 2

B2: 6His-ArsR1 (natural protein, Pseudomonas putida KT2440, UniProt Q88LK1 11-128, looked up)
chain: MREILTPPIVFKCLADDTRARMTLLIAREGELCVCELTHALELSQPKISRHLAQLREAGILMDRRKGQWVYYRLHPEVPQWVDAMLKGVVDANQEWLSPDALRLAEMGERPQSPVACA
notes: ArsR1, As(III)-responsive transcriptional repressor of the ars1 operon (SmtB/ArsR family), Pseudomonas putida KT2440; protein of 118 amino acids; 373-bp PCR fragment that includes the arsR1 gene cloned BamHI/HindIII into pQE32; Theoretical monomer mass with tag 14,869 Da; source: E. coli M15 (pREP4, pQE32-ArsR1), purified (Ni-NTA agarose, dialysed)
- stoichiometry N [3]: 2
